The results in this text go back to patent US20040071698A1 (UAB RESEARCH FOUNDATION, published 2004).

Assay [1] addresses T1, truncated EGFR, EGFRvIII, on U87MG.deltaEGFR human glioma cells (UniProt P00533 25-1210).
T1 construct: whole, on cells; also called U87MG.AEGFR; truncated and/or mutated epidermal growth factor receptor
Put plainly: FACS on U87MG.deltaEGFR cells, culture medium, anti-alpha tubulin and FITC anti-rat detection. Here is the method: (§1) The cells, U87MG, U87MG.wtEGFR and U87MG.AEGFR were incubated with culture medium, culture medium from pSECTAG or p6.34 for 30 min at 4° C. The cells were washed, then incubated with rat anti-alpha tubulin followed by FITC-labeled anti-rat antibody.
(§2) The EGFR has three major domains, intracellular, transmembrane and extracellular, any of which may serve as the binding site for clone p6.34. To examine whether the scFv binds to the extracellular portion of the receptor, a FACS analysis was used for this determination. For this assay, culture medium collected from U87MG.pSECTAG or U87MG.pSECTAG.6.34.A8 was allowed to interact with the cell surface of 3 different human glioma sublines; U87MG, U87MG.wtEGFR and U87MG.AEGFR (provided by Dr. H-J. Su Huang, UCSD).

Assay [2] concerns the target T2, wild-type EGFR on U87MG.wtEGFR human glioma cells (UniProt P00533 25-1210, limits assumed).
T2 construct: whole, on cells; Estimated at >3x10^6 EGFR per cell; also called native full length epidermal growth factor receptor
Put plainly: FACS on U87MG.wtEGFR cells, culture medium, anti-alpha tubulin and FITC anti-rat detection. Here is the method:
as §1, §2

B1: secretory anti-EGFR scFv clone 6 secreted by stably transfected U87MG.6.34.A8 cells (clone p6.34) (scFv, not shown: small tags and cut ends)
scFv: EVQLVESGGGLVQPGGSLRLSCSASGFTFSSYAMHWVRQAPGKGLEYVSAISSNGGSTYYADSVKGRFTISRDNSKNTLYLQMSSLRAEDTAVYYCVKDVGGSSWYWADYFDYWGQGTLVTVSSGSASAPKLEEGEFSEARVQSVLTQPPSLSVSPGQTASITCSGDKLGDKYASWYQQKPGQSPVLVIYQDRKRPSGIPERFSGSNSGNTATLTISGTQAMDEADYYCQAWDSSTPYVFGTGTKVTVLGQPKANPTVTLFPPSSAAA
notes: The scFv insert was moved from pSEX81 as a Bpu1102I/NotI fragment behind an Ig kappa leader; also called scFv p6.34; clone p6.34 scFv
B1: the binding result in assay [1] and in assay [2] was “binds” throughout.
